The values below come from patent US20230111363A1.

In assay [1] the target is human serum polyclonal antibodies. Briefly: cross-interaction chromatography (CIC), IgG column against blank column.
For assay [2] the target is unchanged. The experiment in a line: cross-interaction chromatography (CIC), column with human serum polyclonal IgG.

B1: anti-human MCT1 antibody Ab1 (antibody, human IgG1, kappa, V domains shown)
VH: QVQLVQSGAEVKKPGASVKVSCTVSGFSLTNYHLQWVRQAPGQGLEWMGFIRSSGNTEYNSEFKSRVTMTRDTSTSTVYMELSSLRSEDTAVYYCARNSWYHGTYYSPGYYVMDAWGQGTLVTVSS
VL: EIVLTQSPGTLSLSPGERATLSCKGSQNINNYLAWYQQKPGQAPRLLIYNRHNLQTGIPDRFSGSGSGTDFTLTISRLEPEDFAVYYCYQYSDGYTFGGGTKVEIKR
In the case of B1, the IgG K' (column retention time ratio) in assay [1] worked out at 0.05. In assay [2], this molecule returned an IgG column RT of 5.07 min and an IgG column peak width of 1.5 min.

B2: anti-human MCT1 antibody Ab13 (antibody, human IgG1, kappa, V domains shown)
VH: QVQLVQSGAEVKKPGASVKVSCTVSGRSLTNYHLQWVRQAPGQGLEWMGFIRSSGNTEYNSEFKSRVTMTRDTSTSTVYMELSSLRSEDTAVYYCARNRWRHGTYYSPGYYVMDAWGQGTLVTVSS
VL: EIVLTQSPGTLSLSPGERATLSCKGSQNIENYLAWYQQKPGQAPRLLIYNRHNLQTGIPDRFSGSGSGTDFTLTISRLEPEDFAVYYCYQYSDGYTFGGGTKVEIKR
On to B2, for which, in assay [1], the IgG K' (column retention time ratio) was determined as 0.07. In assay [2], this molecule had an IgG column RT of 5.33 min and an IgG column peak width of 1.63 min.

B3: anti-human MCT1 antibody Ab19 (antibody, human IgG1, kappa, V domains shown)
VH: QVQLVQSGAEVKKPGASVKVSCTVSGRSLTNYHLQWVRQAPGQGLEWMGFIRRSGNTEYNSEFKSRVTMTRDTSTSTVYMELSSLRSEDTAVYYCARNRWYHGTYYSPGYYVMDAWGQGTLVTVSS
VL: EIVLTQSPGTLSLSPGERATLSCKGSQNIENYLAWYQQKPGQAPRLLIYNRHNLQTGIPDRFSGSGSGTDFTLTISRLEPEDFAVYYCYQYSDGYTFGGGTKVEIKR
Consider B3, for which the IgG K' (column retention time ratio) in assay [1] worked out at 0.08. Moreover, in assay [2], the IgG column RT worked out at 5.41 min and the IgG column peak width turned out to be 1.94 min.

B4: anti-human MCT1 antibody Ab7 (antibody, human IgG1, kappa, V domains shown)
VH: QVQLVQSGAEVKKPGASVKVSCTVSGRSRTNYHLQWVRQAPGQGLEWMGFIRSSGNTEYNSEFKSRVTMTRDTSTSTVYMELSSLRSEDTAVYYCARNRWYHGTYYSPGYYVMDAWGQGTLVTVSS
VL: EIVLTQSPGTLSLSPGERATLSCKGSQNIENYLAWYQQKPGQAPRLLIYNRHNLQTGIPDRFSGSGSGTDFTLTISRLEPEDFAVYYCYQYSDGYTFGGGTKVEIKR
Consider B4, for which the IgG K' (column retention time ratio) in assay [1] came out at 0.08. Moreover, in assay [2], the IgG column RT is 5.38 min and the IgG column peak width was 1.79 min.

B5: anti-human MCT1 antibody Ab17 (antibody, human IgG1, kappa, V domains shown)
VH: QVQLVQSGAEVKKPGASVKVSCTVSGRSLTNIHLQWVRQAPGQGLEWMGFIRSSGNTEYNSEFKSRVTMTRDTSTSTVYMELSSLRSEDTAVYYCARNRWYHGTYYSPGYYVMDAWGQGTLVTVSS
VL: EIVLTQSPGTLSLSPGERATLSCKGSQNIENYLAWYQQKPGQAPRLLIYNRHNLQTGIPDRFSGSGSGTDFTLTISRLEPEDFAVYYCYQYSDGYTFGGGTKVEIKR
Consider B5, for which the IgG K' (column retention time ratio) in assay [1] is 0.05. In assay [2], this molecule yielded an IgG column RT of 5.19 min and an IgG column peak width of 1.36 min.

B6: anti-human MCT1 antibody Ab18 (antibody, human IgG1, kappa, V domains shown)
VH: QVQLVQSGAEVKKPGASVKVSCTVSGRSLTNYHLGWVRQAPGQGLEWMGFIRSSGNTEYNSEFKSRVTMTRDTSTSTVYMELSSLRSEDTAVYYCARNRWYHGTYYSPGYYVMDAWGQGTLVTVSS
VL: EIVLTQSPGTLSLSPGERATLSCKGSQNIENYLAWYQQKPGQAPRLLIYNRHNLQTGIPDRFSGSGSGTDFTLTISRLEPEDFAVYYCYQYSDGYTFGGGTKVEIKR
In the case of B6, the IgG K' (column retention time ratio) in assay [1] is 0.08. In assay [2], this molecule gave an IgG column RT of 5.35 min and an IgG column peak width of 1.64 min.

B7: anti-human MCT1 antibody Ab9 (antibody, human IgG1, kappa, V domains shown)
VH: QVQLVQSGAEVKKPGASVKVSCTVSGRSLTNYHIQWVRQAPGQGLEWMGFIRSSGNTEYNSEFKSRVTMTRDTSTSTVYMELSSLRSEDTAVYYCARNRWYHGTYYSPGYYVMDAWGQGTLVTVSS
VL: EIVLTQSPGTLSLSPGERATLSCKGSQNIENYLAWYQQKPGQAPRLLIYNRHNLQTGIPDRFSGSGSGTDFTLTISRLEPEDFAVYYCYQYSDGYTFGGGTKVEIKR
On to B7, for which the IgG K' (column retention time ratio) in assay [1] was determined as 0.07. In assay [2], this molecule gave an IgG column RT of 5.28 min and an IgG column peak width of 1.46 min.

B8: anti-human MCT1 antibody Ab15 (antibody, human IgG1, kappa, V domains shown)
VH: QVQLVQSGAEVKKPGASVKVSCTVSGRSLTNYHLQWVRQAPGQGLEWMGFIRSSGNTEYNSEFKSRVTMTRDTSTSTVYMELSSLRSEDTAVYYCARNLWYHGTYYSPGYYVMDAWGQGTLVTVSS
VL: EIVLTQSPGTLSLSPGERATLSCKGSQNIENYLAWYQQKPGQAPRLLIYNRHNLQTGIPDRFSGSGSGTDFTLTISRLEPEDFAVYYCYQYSDGYTFGGGTKVEIKR
For B8, in assay [1], the IgG K' (column retention time ratio) stood at 0.09. In assay [2], this molecule had an IgG column RT of 5.27 min and an IgG column peak width of 1.55 min.

B9: anti-human MCT1 antibody Ab10 (antibody, human IgG1, kappa, V domains shown)
VH: QVQLVQSGAEVKKPGASVKVSCTVSGRSLTGYHLQWVRQAPGQGLEWMGFIRSSGNTEYNSEFKSRVTMTRDTSTSTVYMELSSLRSEDTAVYYCARNRWYHGTYYSPGYYVMDAWGQGTLVTVSS
VL: EIVLTQSPGTLSLSPGERATLSCKGSQNIENYLAWYQQKPGQAPRLLIYNRHNLQTGIPDRFSGSGSGTDFTLTISRLEPEDFAVYYCYQYSDGYTFGGGTKVEIKR
In the case of B9, the IgG K' (column retention time ratio) in assay [1] worked out at 0.06. Further, in assay [2], the IgG column RT was 5.27 min and the IgG column peak width is 1.44 min.

B10: anti-human MCT1 antibody Ab16 (antibody, human IgG1, kappa, V domains shown)
VH: QVQLVQSGAEVKKPGASVKVSCTRSGRSLTNYHLQWVRQAPGQGLEWMGFIRSSGNTEYNSEFKSRVTMTRDTSTSTVYMELSSLRSEDTAVYYCARNRWYHGTYYSPGYYVMDAWGQGTLVTVSS
VL: EIVLTQSPGTLSLSPGERATLSCKGSQNIENYLAWYQQKPGQAPRLLIYNRHNLQTGIPDRFSGSGSGTDFTLTISRLEPEDFAVYYCYQYSDGYTFGGGTKVEIKR
In the case of B10, the IgG K' (column retention time ratio) in assay [1] came to 0.08. In assay [2], the IgG column RT was determined as 5.4 min and the IgG column peak width came to 1.89 min.

B11: anti-human MCT1 antibody Ab8 (antibody, human IgG1, kappa, V domains shown)
VH: QVQLVQSGAEVKKPGASVKVSCTVSGRSLTNYHLQWVRQAPGQGLEWMGFIRSSGNTIYNSEFKSRVTMTRDTSTSTVYMELSSLRSEDTAVYYCARNRWYHGTYYSPGYYVMDAWGQGTLVTVSS
VL: EIVLTQSPGTLSLSPGERATLSCKGSQNIENYLAWYQQKPGQAPRLLIYNRHNLQTGIPDRFSGSGSGTDFTLTISRLEPEDFAVYYCYQYSDGYTFGGGTKVEIKR
Regarding B11, in assay [1], the IgG K' (column retention time ratio) is 0.07. In assay [2], the IgG column RT is 5.34 min and the IgG column peak width came out at 1.55 min.

B12: anti-human MCT1 antibody Ab14 (antibody, human IgG1, kappa, V domains shown)
VH: QVQLVQSGAEVKKPGASVKVSCTVSGRSLTNYHLQWVRQAPGQGLEWMGFIRSSGNTEYNSEFKSRVTMTRDTSTSTVYMELSSLRSEDTAVYYCARNRWYHGTYYSPGYYVMDPWGQGTLVTVSS
VL: EIVLTQSPGTLSLSPGERATLSCKGSQNIENYLAWYQQKPGQAPRLLIYNRHNLQTGIPDRFSGSGSGTDFTLTISRLEPEDFAVYYCYQYSDGYTFGGGTKVEIKR
As to B12, in assay [1], the IgG K' (column retention time ratio) stood at 0.07. In assay [2], this molecule had an IgG column RT of 5.29 min and an IgG column peak width of 1.51 min.

B13: anti-human MCT1 antibody Ab12 (antibody, human IgG1, kappa, V domains shown)
VH: QVQLVQSGAEVKKPGASVKVSCTVSGRSLTNYHLVWVRQAPGQGLEWMGFIRSSGNTEYNSEFKSRVTMTRDTSTSTVYMELSSLRSEDTAVYYCARNRWYHGTYYSPGYYVMDAWGQGTLVTVSS
VL: EIVLTQSPGTLSLSPGERATLSCKGSQNIENYLAWYQQKPGQAPRLLIYNRHNLQTGIPDRFSGSGSGTDFTLTISRLEPEDFAVYYCYQYSDGYTFGGGTKVEIKR
For the molecule B13, in assay [1], the IgG K' (column retention time ratio) came to 0.07. Moreover, in assay [2], the IgG column RT came to 5.29 min and the IgG column peak width was 1.46 min.

B14: anti-human MCT1 antibody Ab11 (antibody, human IgG1, kappa, V domains shown)
VH: QVQLVQSGAEVKKPGASVKVSCTVSGRSLTNYHLQWVRQAPGQGLEWMGFIRSSGNTEYNSEFKSRVTMTRDTSTSTVYMELSSLRSEDTAVYYCARNRWHHGTYYSPGYYVMDAWGQGTLVTVSS
VL: EIVLTQSPGTLSLSPGERATLSCKGSQNIENYLAWYQQKPGQAPRLLIYNRHNLQTGIPDRFSGSGSGTDFTLTISRLEPEDFAVYYCYQYSDGYTFGGGTKVEIKR
For B14, the IgG K' (column retention time ratio) in assay [1] is 0.06. Besides, in assay [2], the IgG column RT stood at 5.33 min and the IgG column peak width came to 1.57 min.
